Source: PMC11472053, “Structural basis of DNA recognition by BEN domain proteins reveals a role for oligomerization in unmethylated DNA selection by BANP” (Nucleic Acids Research, 2024)

What was measured:
BANP BEN WT (human) = biological target: T1, BANP BEN WT (human) (UniProt Q8N9N5); test: ITC; conditions: 5-methyl-C at positions 5 and 7 of each strand (fully methylated); ITC: 20 mM Tris pH 7.5, 200 mM NaCl, 2 mM beta-mercaptoethanol, 20 C; EMSA: 20 mM Tris pH 7.0, 200 mM NaCl, 2 mM DTT, 4 C, 1.2% agarose in TAE
T1 sequence: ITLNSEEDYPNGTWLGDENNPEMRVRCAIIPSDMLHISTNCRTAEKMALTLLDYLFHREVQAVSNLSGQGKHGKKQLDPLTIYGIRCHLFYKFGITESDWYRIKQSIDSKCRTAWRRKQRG

BANP BEN WT [1] = biological target: T2, BANP BEN WT (human, UniProt Q8N9N5 205-325); test: EMSA; ITC: 20 mM Tris pH 7.5, 200 mM NaCl, 2 mM beta-mercaptoethanol, 20 C; EMSA: 20 mM Tris pH 7.0, 200 mM NaCl, 2 mM DTT, 4 C, 1.2% agarose in TAE; conditions: protein: recombinant; tags: His-SUMO or His-MBP, cleaved; chain copies: 2; blunt
T2 sequence: T1 sequence

NACC1 BEN WT [2] = biological target: T3, NACC1 BEN WT (human, UniProt Q96RE7 341-477); test: as above; conditions: protein: recombinant; tags: His-SUMO or His-MBP, cleaved; blunt
T3 sequence: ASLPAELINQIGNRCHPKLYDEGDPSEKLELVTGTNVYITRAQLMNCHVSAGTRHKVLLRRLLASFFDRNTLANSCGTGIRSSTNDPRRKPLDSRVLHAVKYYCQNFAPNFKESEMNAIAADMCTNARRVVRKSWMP

NACC1 BEN WT [3] = biological target: T3, NACC1 BEN WT; test: crystal structure; 2.3 A; PDB assignment from column order; ITC: 20 mM Tris pH 7.5, 200 mM NaCl, 2 mM beta-mercaptoethanol, 20 C; EMSA: 20 mM Tris pH 7.0, 200 mM NaCl, 2 mM DTT, 4 C, 1.2% agarose in TAE; conditions: protein: recombinant; tags: His-SUMO or His-MBP, cleaved; 10 bp, 5' overhang 1 nt (T) each strand
[4] = biological target: the molecule itself; test: cross-linking; purified full-length BANP in 20 mM HEPES pH 7.5, 200 mM NaCl, 2 mM DTT; 0.06% glutaraldehyde, on ice 10 min, quenched with Tris; then Superdex 200 10/300 GL and SDS-PAGE of the fractions
BANP CC-BEN (ΔDBD) = biological target: T4, BANP CC-BEN (ΔDBD) (human, UniProt Q8N9N5 1-360); test: ITC; ITC: 20 mM Tris pH 7.5, 200 mM NaCl, 2 mM beta-mercaptoethanol, 20 C; EMSA: 20 mM Tris pH 7.0, 200 mM NaCl, 2 mM DTT, 4 C, 1.2% agarose in TAE; conditions: protein: recombinant; tags: His-SUMO or His-MBP, cleaved; blunt, self-complementary
T4 sequence: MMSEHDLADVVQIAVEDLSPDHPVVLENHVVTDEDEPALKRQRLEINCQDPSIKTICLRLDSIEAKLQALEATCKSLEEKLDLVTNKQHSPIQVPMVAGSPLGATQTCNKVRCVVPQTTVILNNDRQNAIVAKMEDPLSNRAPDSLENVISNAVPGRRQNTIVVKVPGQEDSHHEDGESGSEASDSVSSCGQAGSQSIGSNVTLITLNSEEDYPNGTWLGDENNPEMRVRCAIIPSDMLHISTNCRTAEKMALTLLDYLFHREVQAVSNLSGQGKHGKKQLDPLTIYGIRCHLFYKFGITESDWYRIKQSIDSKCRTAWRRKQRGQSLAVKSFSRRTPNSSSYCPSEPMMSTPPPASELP

BANP full-length WT = biological target: T5, BANP full-length WT (human, UniProt Q8N9N5 1-519); test: as above; conditions: protein: recombinant; tags: His-SUMO or His-MBP, cleaved; chain copies: 4; blunt, self-complementary
T5 sequence: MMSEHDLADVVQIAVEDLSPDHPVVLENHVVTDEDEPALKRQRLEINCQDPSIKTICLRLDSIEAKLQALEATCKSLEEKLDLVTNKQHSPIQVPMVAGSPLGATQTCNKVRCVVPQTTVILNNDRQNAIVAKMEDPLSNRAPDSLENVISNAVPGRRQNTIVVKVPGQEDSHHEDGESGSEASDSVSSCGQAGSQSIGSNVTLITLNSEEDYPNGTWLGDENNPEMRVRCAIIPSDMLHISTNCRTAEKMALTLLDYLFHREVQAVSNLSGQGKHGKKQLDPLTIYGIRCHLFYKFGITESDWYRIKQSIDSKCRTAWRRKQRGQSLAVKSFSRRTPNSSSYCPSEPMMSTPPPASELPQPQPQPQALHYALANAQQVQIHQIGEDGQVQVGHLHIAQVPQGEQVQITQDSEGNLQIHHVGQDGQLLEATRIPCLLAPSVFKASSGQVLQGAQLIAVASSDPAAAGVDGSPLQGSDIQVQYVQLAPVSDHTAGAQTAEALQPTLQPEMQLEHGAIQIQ

BANP ΔCC = biological target: T6, BANP ΔCC (human, UniProt Q8N9N5 90-519); test: as above; conditions: protein: recombinant; tags: His-SUMO or His-MBP, cleaved; blunt, self-complementary
T6 sequence: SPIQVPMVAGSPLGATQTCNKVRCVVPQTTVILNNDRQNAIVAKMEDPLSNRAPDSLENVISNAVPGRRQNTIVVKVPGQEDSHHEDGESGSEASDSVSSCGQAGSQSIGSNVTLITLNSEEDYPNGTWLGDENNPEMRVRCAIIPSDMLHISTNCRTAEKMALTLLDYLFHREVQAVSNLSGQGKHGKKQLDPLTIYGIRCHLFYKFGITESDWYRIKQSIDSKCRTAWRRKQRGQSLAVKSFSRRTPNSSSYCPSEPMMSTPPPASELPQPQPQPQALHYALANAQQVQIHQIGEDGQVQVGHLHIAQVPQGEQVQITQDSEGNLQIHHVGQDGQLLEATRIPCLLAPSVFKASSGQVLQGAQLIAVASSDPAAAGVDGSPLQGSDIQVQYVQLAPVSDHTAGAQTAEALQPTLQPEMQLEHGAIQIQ

BANP BEN-DBD = biological target: T7, BANP BEN-DBD (human, UniProt Q8N9N5 205-519); test: as above; conditions: protein: recombinant; tags: His-SUMO or His-MBP, cleaved; blunt, self-complementary
T7 sequence: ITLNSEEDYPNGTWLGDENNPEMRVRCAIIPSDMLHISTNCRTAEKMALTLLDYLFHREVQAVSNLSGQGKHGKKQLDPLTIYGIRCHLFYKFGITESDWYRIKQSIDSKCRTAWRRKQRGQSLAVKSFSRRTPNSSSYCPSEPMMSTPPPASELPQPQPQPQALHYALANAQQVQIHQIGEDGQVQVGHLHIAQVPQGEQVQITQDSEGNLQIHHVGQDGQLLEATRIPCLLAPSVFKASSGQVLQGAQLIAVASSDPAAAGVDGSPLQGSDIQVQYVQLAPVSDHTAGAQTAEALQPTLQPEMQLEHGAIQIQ

BANP BEN WT [5] = biological target: T2, BANP BEN WT; test: crystal structure; 2.6 A; PDB assignment from column order; ITC: 20 mM Tris pH 7.5, 200 mM NaCl, 2 mM beta-mercaptoethanol, 20 C; EMSA: 20 mM Tris pH 7.0, 200 mM NaCl, 2 mM DTT, 4 C, 1.2% agarose in TAE; conditions: protein: recombinant; tags: His-SUMO or His-MBP, cleaved; chain copies: 2; 12 bp, 5' overhang 1 nt (C) each strand

In the case of “ATCTCGCGAGAT (double strand) [12-mCGmCG]”, the Kd (BANP BEN WT (human)) is reported as 5.7 µM.

B1: 12-AT (dsDNA)
DNA 1: TTTTATATATAA
DNA 2: TTATATATAAAA
B1: no binding (BANP BEN WT [1]); no binding (NACC1 BEN WT [2]).

B2: NACC1 crystal DNA (dsDNA)
DNA 1: TTTACATGTAA
DNA 2: TTTACATGTAA
B2: binds (NACC1 BEN WT [3]).

B3: full-length BANP (natural protein, human, UniProt Q8N9N5 1-519, looked up)
chain: T5 sequence
notes: BANP, human, full length; also called SMAR1; source: E. coli Rosetta (DE3), purified (nickel column, HiTrap Q, gel filtration)
In the case of B3, the “stoichiometry N” value [4] is reported as 4.

B4: 12-mCGmCG (dsDNA)
DNA 1: ATCTCGCGAGAT
DNA 2: ATCTCGCGAGAT
modifications: 5-methyl-C at positions 5 and 7 of each strand (fully methylated)
B4: no binding (BANP CC-BEN (ΔDBD)); no binding (BANP full-length WT); no binding (BANP ΔCC). B4: no binding (BANP BEN-DBD).

B5: BANP crystal DNA (dsDNA)
DNA 1: CATCTCGCGAGAT
DNA 2: CATCTCGCGAGAT
B5: binds (BANP BEN WT [5]).
